Assay results from PMC5214336.

Key:
[1] = biological target: Bos1 model TA substrate labelled with 7-hydroxycoumaryl ethylglycine (Cm) (S. cerevisiae) (UniProt P25385); assay: FRET or BRET; stopped-flow time course of TA transfer from Sgt2 to Get3^BDP without Get4/5
[2] = biological target: 2AG model TA substrate labelled with Cm (S. cerevisiae) (UniProt P25385); assay: FRET or BRET; pulse-chase: 20-50 nM preformed purified Get3^BDP•TA^Cm chased with a 10-fold excess of unlabeled Get3; loss of FRET followed in time
[3] = biological target: 3AG model TA substrate labelled with Cm (S. cerevisiae) (UniProt P25385); assay: as above
[4] = biological target: 4AG model TA substrate labelled with Cm (S. cerevisiae) (UniProt P25385); assay: as above
[5] = biological target: 5AG model TA substrate labelled with Cm (S. cerevisiae) (UniProt P25385); assay: as above
[6] = biological target: 6AG model TA substrate labelled with Cm (S. cerevisiae) (UniProt P25385); assay: as above
[7] = biological target: Bos1 model TA substrate labelled with 7-hydroxycoumaryl ethylglycine (Cm) (S. cerevisiae) (UniProt P25385); assay: as above
[8] = biological target: Bos1-FisC model TA substrate labelled with Cm (S. cerevisiae); assay: as above
[9] = biological target: 2AG model TA substrate labelled with Cm (S. cerevisiae) (UniProt P25385); assay: FRET or BRET; stopped-flow time courses of TA transfer with Get4/5: ~50 nM Sgt2•TA^Cm in 150 nM Sgt2 mixed 1:1 with 400 nM Get3^BDP, 400 nM Get4/5, 2 mM ATP; donor fluorescence at 445 nm; biphasic fit
[10] = biological target: 3AG model TA substrate labelled with Cm (S. cerevisiae) (UniProt P25385); assay: as above
[11] = biological target: 4AG model TA substrate labelled with Cm (S. cerevisiae) (UniProt P25385); assay: as above
[12] = biological target: 5AG model TA substrate labelled with Cm (S. cerevisiae) (UniProt P25385); assay: as above
[13] = biological target: Bos1 model TA substrate labelled with 7-hydroxycoumaryl ethylglycine (Cm) (S. cerevisiae) (UniProt P25385); assay: as above
[14] = biological target: Bos1-FisC model TA substrate labelled with Cm (S. cerevisiae); assay: as above
[15] = biological target: 2AG model TA substrate labelled with Cm (S. cerevisiae) (UniProt P25385); assay: FRET or BRET; equilibrium titration of TA transfer from Sgt2 to Get3: 20-50 nM purified Sgt2•TA^Cm, 150 nM Sgt2, 150 nM Get4/5, 2 mM ATP, varied Get3^BDP; GET buffer, 25°C; apparent K1/2 at 150 nM Sgt2
[16] = biological target: 3AG model TA substrate labelled with Cm (S. cerevisiae) (UniProt P25385); assay: as above
[17] = biological target: 4AG model TA substrate labelled with Cm (S. cerevisiae) (UniProt P25385); assay: as above
[18] = biological target: 5AG model TA substrate labelled with Cm (S. cerevisiae) (UniProt P25385); assay: as above
[19] = biological target: Bos1 model TA substrate labelled with 7-hydroxycoumaryl ethylglycine (Cm) (S. cerevisiae) (UniProt P25385); assay: as above
[20] = biological target: Bos1-FisC model TA substrate labelled with Cm (S. cerevisiae); assay: as above

B1: BODIPY-FL-labeled ybbR-Get3 (enzyme)
chain: MDLTVEPNLHSLITSTTHKWIFVGGKGGVGKTTSSCSIAIQMALSQPNKQFLLISTDPAHNLSDAFGEKFGKDARKVTGMNNLSCMEIDPSAALKDMNDMAVSRANNNGSDGQGDDLGSLLQGGALADLTGSIPGIDEALSFMEVMKHIKRQEQGEGETFDTVIFDTAPTGHTLRFLQLPNTLSKLLEKFGEITNKLGPMLNSFMGAGNVDISGKLNELKANVETIRQQFTDPDLTTFVCVCISEFLSLYETERLIQELISYDMDVNSIIVNQLLFAENDQEHNCKRCQARWKMQKKYLDQIDELYEDFHVVKMPLCAGEIRGLNNLTKFSQFLNKEYNPITDGKVIYELEDKE
modifications: CoA-BODIPY-FL enzymatically conjugated to the ybbR tag by the Sfp phosphopantetheinyl transferase
- k fast of TA transfer from Sgt2 to Get3 (fast phase) [1]: 0.0094 s⁻¹
- k slow of TA transfer from Sgt2 to Get3 (slow phase) [1]: 0.003 s⁻¹
- t1/2 of TA transfer from Sgt2 to Get3 [1]: 98 s
- koff [2]: 0.000383 s⁻¹
- koff [3]: 0.000433 s⁻¹
- koff [4]: 0.000283 s⁻¹
- koff [5]: 0.000567 s⁻¹
- koff [6]: 0.00333 s⁻¹
- koff [7]: 0.0003 s⁻¹
- koff [8]: 0.000483 s⁻¹
- k fast of TA transfer from Sgt2 to Get3 (fast phase) [9]: 0.077 s⁻¹
- k slow of TA transfer from Sgt2 to Get3 (slow phase) [9]: 0.007 s⁻¹
- t1/2 of TA transfer from Sgt2 to Get3 [9]: 13.5 s
- k fast of TA transfer from Sgt2 to Get3 (fast phase) [10]: 0.164 s⁻¹
- k slow of TA transfer from Sgt2 to Get3 (slow phase) [10]: 0.017 s⁻¹
- t1/2 of TA transfer from Sgt2 to Get3 [10]: 4.8 s
- k fast of TA transfer from Sgt2 to Get3 (fast phase) [11]: 0.183 s⁻¹
- k slow of TA transfer from Sgt2 to Get3 (slow phase) [11]: 0.033 s⁻¹
- t1/2 of TA transfer from Sgt2 to Get3 [11]: 6.3 s
- k fast of TA transfer from Sgt2 to Get3 (fast phase) [12]: 0.151 s⁻¹
- k slow of TA transfer from Sgt2 to Get3 (slow phase) [12]: 0.023 s⁻¹
- t1/2 of TA transfer from Sgt2 to Get3 [12]: 11.8 s
- k fast of TA transfer from Sgt2 to Get3 (fast phase) [13]: 0.047 s⁻¹
- k slow of TA transfer from Sgt2 to Get3 (slow phase) [13]: 0.011 s⁻¹
- t1/2 of TA transfer from Sgt2 to Get3 [13]: 17.7 s
- k fast of TA transfer from Sgt2 to Get3 (fast phase) [14]: 0.063 s⁻¹
- k slow of TA transfer from Sgt2 to Get3 (slow phase) [14]: 0.009 s⁻¹
- t1/2 of TA transfer from Sgt2 to Get3 [14]: 12.3 s
- K1/2 (Get3 for 50% TA transfer from Sgt2, at 150 nM Sgt2) [15]: 6.4 nM
- K1/2 (Get3 for 50% TA transfer from Sgt2, at 150 nM Sgt2) [16]: 3.7 nM
- K1/2 (Get3 for 50% TA transfer from Sgt2, at 150 nM Sgt2) [17]: 5.7 nM
- K1/2 (Get3 for 50% TA transfer from Sgt2, at 150 nM Sgt2) [18]: 10 nM
- K1/2 (Get3 for 50% TA transfer from Sgt2, at 150 nM Sgt2) [19]: 5.2 nM
- K1/2 (Get3 for 50% TA transfer from Sgt2, at 150 nM Sgt2) [20]: 9.2 nM
